Experimental data taken from the supplement of paper PMC9170038.

System: MS2 coat protein
Test: apparent KD of MS2 coat protein; designed switch direction (-1 OFF switch, 1 ON switch): 1; higher = weaker reporter binding
Method in brief: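 RNA switches sharing common flanks were transcribed by stalled E. coli RNA polymerase on Illumina chips. A doubling series of SNAP-549-labelled MS2 coat protein, from 0.7 or 1.5 nM to 3 µM, was applied in Tris-HCl pH 7.5 buffer with KCl, MgCl2, BSA, DTT, tRNA and Tween-20. Each step lasted 0.8–1.5 h at the bottom of the series and 10–20 min at the top. Normalised cluster fluorescence was curve-fitted, giving apparent KD as the per-design median over clusters.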

[1] = input ligand: microRNA oligo, concentration not stated
[2] = Eterna round: R95, input ligand: FMN 200 uM
[3] = Eterna round: R95, input ligand: microRNA oligo, concentration not stated
[4] = Eterna round: R95, input ligand: none

Sequence	apparent KD of MS2 coat protein (input ligand: FMN 200 uM)	apparent KD of MS2 coat protein [1]	apparent KD of MS2 coat protein (input ligand: none)	apparent KD of MS2 coat protein [2]	apparent KD of MS2 coat protein [3]	apparent KD of MS2 coat protein [4]
UUAUUAUACGUAGGAUAUUGAUGAUUGAUAGUACAAGAAGGACGAACAUGAGGAUCACCCAUGUAUAUUAAAAUGAGUUUGAAU [JR_SSNG1_Sub077] (Eterna round: R96, puzzle: Same State NG 1)	0.0728 µM	0.0528 µM	0.0551 µM	–	–	–
UAAGUCAUGUAAGGAUAUGCAGCCGAAACGGCUGCAGAAGGUACUAUAAUUACAUGAGGAUCACCCAUGUUAUAAAAUUAAAAU [Mat - Same State NG 1 - JL mod - D79] (Eterna round: R96, puzzle: Same State NG 1)	0.0208 µM	0.0311 µM	0.0573 µM	–	–	–
GUGGAGGGUUGAGGAUAUUGAAUACAUAUGUUUAACAUGAGGAUCACCCAUGUGGGUUGCGGUAUCGAGAAGGUAGGUUGCUGG [salish99_SSNG2_r04_039] (Eterna round: R96, puzzle: Same State NG 2)	0.0967 µM	0.0452 µM	0.0849 µM	–	–	–
ACUUGCUUUUUGCUCGUAUAUUGUCCAUUACAUGAGGAUCACCCAUGUGUGUAUUGUGUAUUGUUUUUGAUACGUGC [JR_SHM208A_Sub071] (puzzle: Sensor for hsa-mir-208a)	–	–	–	0.243 µM	0.0244 µM	0.302 µM
AAACAGCCCAACGGAGGGCCACAUGAGGAUCACCCAUGUACAUAGGAUAUCACGCCAACGAGGCGUGAGAAGGGUGAUUAAAAC [Inesteen] (Eterna round: R96, puzzle: Same State NG 3)	0.018 µM	0.0512 µM	0.0539 µM	–	–	–
AGUCCAGCCUGAGCUGGACAAAAGCAUGUACAUGAGGAUCACCCAUGUCAUGUACAAGCUUUUUGCUCGUCUUAAGA [Mat - hsa-mir-208a - Mod of JL - D21] (puzzle: Sensor for hsa-mir-208a)	–	–	–	0.561 µM	0.0165 µM	0.933 µM
GUUAGGAAUCUAGCCAACAUGAGGAUCACCCAUGUUAGUGGGAAGGAUAUGGUACAGAAACUGUACCAGAAGGUCUUAUUGUUU [Omei SS(NG) 3 AV10] (Eterna round: R96, puzzle: Same State NG 3)	0.0754 µM	0.0546 µM	0.0966 µM	–	–	–
GACAAUCUAUCUGAGGAUAUCAUGAAAAAAACAUGAGGAUCACCCAUGUGCAGGAAAACUGCAUAUGAGAAGGCAGAUAGAUUGU [salish99_SS2_r3_010] (puzzle: Same State 2)	–	–	–	0.0453 µM	0.689 µM	0.627 µM
GCUCGAUGAGCGUUUUACAUGAGGAUCACCCAUGUACGUGGGCAGGAUAUUUACGUGCGGUGUGUAGAGAAGGGCCCAUCGAGC [SameState NG3 #70] (Eterna round: R96, puzzle: Same State NG 3)	0.0483 µM	0.243 µM	0.279 µM	–	–	–
UGGUACAUGGGAGGAUAUCCUCAUGAGACAUGAGGAUCACCCAUGUAUUAUAAGCCGAAAGGCAUGGAGAAGGCCCAUGUACCU [JL SSNG1 3.83] (Eterna round: R96, puzzle: Same State NG 2)	0.025 µM	0.269 µM	0.455 µM	–	–	–
GCUGCAAGGGCAGGAUAUGGGUCCAAAGCGCAAGUGCGCUUUGGUACAUGAGGAUCACCCAUGUCCCAGAAGGGCCCAAGCGGC [Quzaceza] (Eterna round: R96, puzzle: Same State NG 2)	0.0156 µM	0.0831 µM	0.14 µM	–	–	–
CAUAAACCUCACGAGGAUAUCCACAGAUAGACAUGAGGAUCACCCAUGUCGACUUUCGAACUGAGGGAGAAGGCGUAGGUACUAA [Gebiorge] (puzzle: Same State 2)	–	–	–	0.0121 µM	0.0131 µM	0.0134 µM
GUGGUGCUUCUAGGAUAUUCAGCGGCCCUCACAUGAGGAUCACCCAUGUUCACAAGAGAAACCAUGAAGAAGGAGAACUACAAU [Eternabot solution 42] (Eterna round: R96, puzzle: Same State NG 2)	0.0456 µM	0.0399 µM	0.0558 µM	–	–	–
UUAAUAAUGAUAGGAUAUACAUGAGGAAUUCUCGUAGAAGGAUCAUGACAUGAGGAUCACCCAUGUAACGCUCAGAAGAGCGUA [Mat - Same State NG 1 - JL mod - D37] (Eterna round: R96, puzzle: Same State NG 1)	0.493 µM	0.184 µM	0.73 µM	–	–	–
UUUUUUUUACAUGAGGAUCACCCAUGUCGGGCUGUUUGCUUUCAUGUCUUAUUGCAUGCAUGUUUUUCAUGCAUGCU [jnicol vienna2 solution] (puzzle: Sensor for hsa-mir-208a version 2)	–	–	–	0.0977 µM	0.129 µM	0.145 µM
GUGCUCGUGUGAGGAUAUGCUUCCGUUUCGGCUGCAGAAGGUACUAUUAUACAUGAGGAUCACCCAUGUCCCUUUUCUCCGGUG [salish99_SSNG1_r04_914] (Eterna round: R96, puzzle: Same State NG 1)	0.0184 µM	0.0135 µM	0.0219 µM	–	–	–
UAAAGUUAGCGAGGAUAUCGUUUAUUGAAGUUACGAGAAGGCGCUCUUCUUACAUGAGGAUCACCCAUGUCUGUUUUGCAUGAU [JR_SSNG1_Sub067] (Eterna round: R96, puzzle: Same State NG 1)	0.052 µM	0.063 µM	0.0713 µM	–	–	–
UGACACACGGCAGGAUAUGCUUAGCAAAGCUAAGCAGAAGGGCCUCAUGUCGUGGAAACGUGACAUGAGGAUCACCCAUGUUGC [Omei SS(NG)1 Cv2] (Eterna round: R96, puzzle: Same State NG 1)	0.306 µM	0.0468 µM	0.0579 µM	–	–	–
AGUGGACAUGAGGAUCACCCAUGUAUGCUGGCAUGAGGAUAUCCGAUUCGUUUCGACUAAGGAGAAGGCAUAGCCC [Geonla] (Eterna round: R96, puzzle: Same State 1)	0.037 µM	0.0989 µM	0.116 µM	–	–	–
GGUGCCAAAUAAGCCUACAUGAGGAUCACCCAUGUAUGUAGGCAGGAUAUCGUAUGCAAAGCAUACGAGAAGGGCUGAGGCACC [Mat - Same State NG 3 - JL Mod - D54] (Eterna round: R96, puzzle: Same State NG 3)	0.0257 µM	0.0516 µM	0.0805 µM	–	–	–
AAACGGCCCAACGGAGGGCCACAUGAGGAUCACCCAUGUACAUAGGAUAUCACACCAACAAGGCGUGAGAAGGGUGAUUAAAAC [Xeatte] (Eterna round: R96, puzzle: Same State NG 3)	0.0581 µM	1.12 µM	0.747 µM	–	–	–
GAGGGAUGAGCGUAGGAUAUAGGAGAAGUGACAUGAGGAUCACCCAUGUGGUAUGAGGGAUGAUUCUAGAAGGACGCGGUAGGAG [JR_SS2_Sub062] (puzzle: Same State 2)	–	–	–	0.154 µM	0.494 µM	0.116 µM
GCAGAACAUGAGGAUCACCCAUGUCUCUAAAGUCGAGGAUAUGGGCAGGUUAUAUCCGAACCAGAAGGCGAUCUGC [SS1 Teenbexe 13] (puzzle: Same State 1)	–	–	–	–	0.108 µM	–
CGCCGACAUGAGGAUCACCCAUGUCACAACUGGUCAGGAUAUGGUAUGAUUUGGCUAUUGCCAGAAGGGACCUCAG [JR_SS001_Sub712] (Eterna round: R96, puzzle: Same State 1)	0.0224 µM	0.0288 µM	0.0306 µM	–	–	–
UGCUAUUGUAUAUUGGUGCAAGCUUUUUGACAUGAGGAUCACCCAUGUACUCGUCUUAUGUGCAGUCCGUAGACUGC [JL-shm-2.24 Brourd mod] (puzzle: Sensor for hsa-mir-208a)	–	–	–	0.0478 µM	0.0134 µM	0.0456 µM
GGAGAACAUGAGGAUCACCCAUGUGAGAGGGAUGUAGGAUAUGUGAGGAGUAGAGGAGGGACAGAAGGACAGAGAU [JR_SS!_Sub069] (puzzle: Same State 1)	–	–	–	0.028 µM	0.0629 µM	0.0526 µM
CGUCGUUUGAUAGGAUAUCGCUAUACAUGAGGAUCACCCAUGUUUACCACGCUGGUUUUUCUUUCCGAGAAGGAUUCUGAUGUU [salish99_SSNG02_r04_022] (Eterna round: R96, puzzle: Same State NG 2)	0.0309 µM	0.0238 µM	0.0335 µM	–	–	–
UAAUUAAGUCAAGGAUAUCACGUCGUUUAGACGUGAGAAGGUGACCAAUACAUGAGGAUCACCCAUGUAAUACAUGAAUAAUUA [SSNG1/12-B3] (Eterna round: R96, puzzle: Same State NG 1)	0.0355 µM	0.0469 µM	0.0514 µM	–	–	–
CACCAGAGGAGAGGAUAUGGUCGAACCCACAGUCCAGAAGGCUCACAGGAACCUAGAGACAUGAGGAUCACCCAUGUGGCGACC [Eternabot solution 7] (Eterna round: R96, puzzle: Same State NG 1)	0.144 µM	0.105 µM	0.165 µM	–	–	–
UACAAUCUAUCUGAGGAUAUCAUGAAUAAAACAUGAGGAUCACCCAUGUGCAGGAAAACUGCAUAUGAGAAGGCAGAUAGAUUGA [Mat - Same State 2 - Mod - D12] (puzzle: Same State 2)	–	–	–	0.0459 µM	0.411 µM	1.45 µM
